This note sets out measurements from patent US20160340421A1 (Regeneron, published 2016).

One experiment deals with T1, hGDF11 homodimer (human, UniProt O95390 299-407).
T1 sequence (looked up): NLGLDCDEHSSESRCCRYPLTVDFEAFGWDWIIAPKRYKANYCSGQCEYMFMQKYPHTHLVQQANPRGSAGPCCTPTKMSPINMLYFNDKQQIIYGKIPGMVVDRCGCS
In words: GDF11-inducible luciferase bioassay, 0.4 nM GDF11 (legend: NB=no binding).

Experiment [1] deals with T2, Human GDF8 homodimer (mature human Growth and Differentiation Factor-8) (human, UniProt O14793 267-375).
T2 construct: also called hGDF8; myostatin
T2 sequence: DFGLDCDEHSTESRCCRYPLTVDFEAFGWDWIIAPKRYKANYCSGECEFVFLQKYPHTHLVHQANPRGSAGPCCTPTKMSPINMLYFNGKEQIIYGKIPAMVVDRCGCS
Briefly: SPR Biacore T100, captured on anti-hFc, 25°C. As to the method: (§1) Additional antigen binding experiments were conducted in which GDF8 and GDF11 were applied over a surface of selected anti-GDF8 antibodies and control antibodies at 25° C. and 37° C. Equilibrium dissociation constants (KD values) for antigen binding to selected antibodies were determined by surface kinetics using a real-time biosensor surface plasmon resonance assay (BIACORE™ T100). […] Various concentrations (2.5-0.625 nM, 2-fold dilutions) of hGDF8 homodimer or hGDF11 homodimer (or in some experiments, Activin A) were injected over the captured antibody surfaces, and antigen-antibody binding and dissociation were monitored in real time. Kinetic analysis was performed to calculate KD, dissociation rate constants (kd), association rate constants (ka) and half-life of antigen/antibody complex dissociation. (NB=no binding observed).

Experiment [2] has as its target T3, GDF11 (from serum of treated C57BL6 mice) (mouse, UniProt Q9Z1W4 297-405, limits assumed).
T3 sequence (looked up): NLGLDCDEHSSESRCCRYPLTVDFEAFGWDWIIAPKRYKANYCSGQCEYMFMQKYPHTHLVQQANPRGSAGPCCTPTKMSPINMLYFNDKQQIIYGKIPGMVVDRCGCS
In words: pull-down from serum of treated mice with anti human Fc beads, mass spectrometry. The protocol: (§2) To examine the specificity of H4H1657N2 in vivo, C57BL6 mice were injected with drug, and serum from treated mice was subjected to a mass spectrometry based ligand “fishing” experiment. Briefly, drug (H4H1657N2, Control IV or isotype negative control) was injected multiple times (Day 0, D3, D7, D10) over a 14-day period into C57BL6 mice. Animals were sacrificed on D14 and serum was incubated with anti human Fc beads. The beads were washed and bound material was eluted with SDS-PAGE loading buffer. Eluted material was subjected to SDS-PAGE and gel slices corresponding to a molecular weight range of 5-20 kDa were excised. Samples were processed for mass spectrometry using standard reduction, alkylation and trypsinization conditions. Digests were separated on a nano C18 column and automatically spotted onto Bruker Anchor Targets. MALDI-MS (MS/MS) analysis (Bruker Ultraflextreme) was performed in an automated fashion, using LC-WARP (Bruker Daltonics). The mass spectra were searched using MASCOT (Matrix Science) and results were evaluated relative to the isotype control.

Experiment [3] has as its target T4, Inhibin beta A chain (from serum of treated C57BL6 mice) (mouse, UniProt Q04998 309-424, limits assumed).
T4 sequence (looked up): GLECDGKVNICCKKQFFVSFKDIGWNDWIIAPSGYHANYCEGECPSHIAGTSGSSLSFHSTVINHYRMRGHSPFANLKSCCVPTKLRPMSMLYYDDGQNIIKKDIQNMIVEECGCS
The experiment is described as above. As to the method:
as §2

The next experiment concerns the target T5, Activin A (UniProt P08476 311-426).
T5 sequence (looked up): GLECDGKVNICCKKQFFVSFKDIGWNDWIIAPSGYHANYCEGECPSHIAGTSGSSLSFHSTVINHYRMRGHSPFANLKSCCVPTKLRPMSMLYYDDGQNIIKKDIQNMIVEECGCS
In words: SPR Biacore T100, 25°C. The protocol: as §1

Experiment [4] addresses T2, Human GDF8 homodimer (mature human …). Briefly: cell-based or functional assay.
For experiment [5], the target named is T6, hGDF8 peptide 4 (48-65), C-terminal biotinylated (human).
T6 construct: also called peptide 4 C-term
T6 peptide: EFVFLQKYPHTHLVHQAN-biotin
In words: Luminex peptide beads. From the text:
(§3) Fourteen peptides (Table 10) were generated from mature hGDF8 (SEQ ID NO:340). Unmodified peptides, N-terminal biotinylated peptides (N-term), or C-terminal biotinylated peptides (C-term) were used to test and localize antibody binding. Full-length hGDF8, hGDF11 and unmodified peptides were each individually amine-coupled to xMAP® Multi-Analyte COOH Microspheres (or beads). Each of the biotinylated peptides was bound to xMAP® Multi-Analyte LumAvidin Microspheres. Peptide-bound beads suspension were then mixed with an equal volume of blocking buffer (PBS, 1%13SA, 0.05% Tween20, 0.05% Sodium azide) and then distributed into a 96 well filter plate (Millipore, MULTISCREEN® BV). Control and test anti-hGDF8 antibodies, at 2.5 μg/ml were then added to the peptide-bound beads suspension and were allowed to bind to the beads at RT, overnight. The antibody-incubated beads were then washed twice with PBST (PBS+0.05% Tween20) and incubated with either Phycoerythrin (PE) conjugated anti-hFC or PE-conjugated anti-mFC antibodies at RT for 45 min. The beads were washed again and the antibody binding signal to various peptides were detected with either LUMINEX® 100™ or 200™ instruments.

In experiment [6] the target is T7, hGDF8 peptide 8 (52-72), unmodified (human).
T7 peptide: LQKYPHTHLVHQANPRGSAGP
In words: Luminex peptide beads.
Excerpt: as §3

For experiment [7], the target named is T8, hGDF8 peptide 6 (48-72), unmodified (human).
T8 construct: also called peptide fragment 48-72 amino acids
T8 peptide: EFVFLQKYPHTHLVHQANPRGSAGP
In words: Luminex peptide beads.
Excerpt: as §3

Experiment [8] concerns the target T9, hGDF8 peptide 1 (1-14), C-terminal biotinylated (human).
T9 construct: also called peptide 1 C-term
T9 peptide: DFGLDCDEHSTESR-biotin
Briefly: Luminex peptide beads.
Excerpt: as §3

For experiment [9], the target named is T10, hGDF8 peptide 14 (91-105), N-terminal biotinylated (human).
T10 construct: also called peptide 14 N-term
T10 peptide: Biotin-EQIIYGKIPAMVVDR
Briefly: Luminex peptide beads.
Excerpt: as §3

Experiment [10] concerns the target T11, hGDF8 peptide 12 (73-90), unmodified (human).
T11 peptide: CCTPTKMSPINMLYFNGK
In words: Luminex peptide beads.
Excerpt: as §3

Experiment [11] deals with T12, hGDF8 peptide 6 (48-72), C-terminal biotinylated (human, C-terminal biotin).
T12 construct: also called peptide 6 C-term
T12 peptide: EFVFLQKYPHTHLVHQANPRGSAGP
Briefly: Luminex peptide beads.
Excerpt: as §3

The target of experiment [12] is T13, hGDF8 peptide 14 (91-105), C-terminal biotinylated (human).
T13 construct: also called peptide 14 C-term
T13 peptide: EQIIYGKIPAMVVDR-biotin
In words: Luminex peptide beads.
Excerpt: as §3

For experiment [13], the target named is T14, hGDF8 peptide 2 (1-18), unmodified (human).
T14 peptide: DFGLDCDEHSTESRCCRY
Briefly: Luminex peptide beads.
Excerpt: as §3

Experiment [14] concerns the target T15, hGDF8 peptide 11 (65-72), unmodified (human).
T15 peptide: NPRGSAGP
In words: Luminex peptide beads.
Excerpt: as §3

In experiment [15] the target is T16, hGDF8 peptide 12 (73-90), C-terminal biotinylated (human, cysteine pairing not given here).
T16 construct: also called peptide 12 C-term
T16 peptide: CCTPTKMSPINMLYFNGK-biotin
In words: Luminex peptide beads.
Excerpt: as §3

Experiment [16] deals with T17, hGDF8 peptide 10 (56-72), unmodified (human).
T17 peptide: PHTHLVHQANPRGSAGP
In words: Luminex peptide beads.
Excerpt: as §3

Ends that are not written are not given here. * marks the point of attachment. Biotin = O=C1N[C@H]2[C@H](CS[C@H]2CCCCC(=O)*)N1

B1: H4H1657N2 (antibody, V domains shown)
VH: EVQVLESGGDLVQPGGSLRLSCAASGFTFSAYAMTWVRQAPGKGLEWVSAISGSGGSAYYADSVKGRFTISRDNSKNTVYLQMNSLRAEDTAVYYCAKDGAWKMSGLDVWGQGTTVIVSS
VL: DIQMTQSPASLSASVGDRVTITCRASQDISDYLAWYQQKPGKIPRLLIYTTSTLQSGVPSRFRGSGSGTDFTLTISSLQPEDVATYYCQKYDSAPLTFGGGTKVEIK
notes: captured by anti-hFc, so human Fc
In the case of B1, the binding result is “no binding” in the experiment with hGDF11 homodimer; “no binding” in [2]; “no binding” in experiment [3]; “no binding (tested: 2.5-0.625 nM)” in the experiment with Activin A; “no binding (tested: 2.5 µg/ml)” in experiment [5]; “no binding (tested: 2.5 µg/ml)” in experiment [6]. In addition, the binding result in experiment [7], in experiment [8], in experiment [9], in experiment [10], in experiment [11] and in [12] was “no binding (tested: 2.5 µg/ml)” throughout. For the same molecule, the binding result in experiment [13], in [14], in [15] and in experiment [16] was “no binding (tested: 2.5 µg/ml)” each time. The Kd in experiment [1] worked out at 0.0283 nM. Also, the T1/2 in experiment [1] turned out to be 3.37 h. In experiment [4], the “IC50, luciferase bioassay, 0.5 nM GDF8” value was 0.78 nM.
